We go through six substances from paper PMC2289905.

Experiment [1] has as its target beta 1-LAP deletion mutant L85-110 (simian). Nature of the experiment: nonreducing SDS-PAGE with immunoblot. In general terms: A western blot detects proteins with antibodies after separation by electrophoresis.
For experiment [2], the target named is radioiodinated mature transforming growth factor beta 1 (UniProt P01137). Nature of the experiment: cross-linking.
Experiment [3] has as its target beta 1-LAP deletion mutant L50-81 (simian). Nature of the experiment: nonreducing SDS-PAGE with immunoblot.
Experiment [4] addresses beta 1-LAP deletion mutant L50-85 (simian). Nature of the experiment: nonreducing SDS-PAGE with immunoblot.
Experiment [5] has as its target beta 1-LAP deletion mutant L40-50 (simian). Nature of the experiment: nonreducing SDS-PAGE with immunoblot.
For experiment [6], the target named is mature TGFbeta1 secreted by COS-1 cells transfected with wild-type pre-pro-TGFbeta1 (simian). Nature of the experiment: nonreducing SDS-PAGE with immunoblot.

radioiodinated mature transforming growth factor beta 1, sequence (P01137 279-390): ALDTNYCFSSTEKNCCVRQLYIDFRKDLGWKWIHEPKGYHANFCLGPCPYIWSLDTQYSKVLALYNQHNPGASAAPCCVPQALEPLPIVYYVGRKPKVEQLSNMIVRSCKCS
beta 1-latency-associated peptide (pro domain of TGFbeta1 expressed independently), wild type (domain or fragment), sequence (P09533 30-390): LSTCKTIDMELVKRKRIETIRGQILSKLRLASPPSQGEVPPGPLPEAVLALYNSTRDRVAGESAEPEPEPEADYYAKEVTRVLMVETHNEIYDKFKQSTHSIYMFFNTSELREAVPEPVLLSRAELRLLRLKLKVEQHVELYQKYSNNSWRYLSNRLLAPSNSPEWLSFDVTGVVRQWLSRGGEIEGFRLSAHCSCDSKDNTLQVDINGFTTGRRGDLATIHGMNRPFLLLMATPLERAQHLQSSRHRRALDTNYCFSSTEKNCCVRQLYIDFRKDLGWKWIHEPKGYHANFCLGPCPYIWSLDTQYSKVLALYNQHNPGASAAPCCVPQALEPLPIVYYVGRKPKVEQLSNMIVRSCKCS

The substance “beta 1-LAP deletion mutant L85-110 (domain or fragment)” had a stoichiometry N in experiment [1] of 2. Also, the cross-linking (% of wild-type) (% of wild-type) in experiment [2] was 12.
As to “beta 1-LAP deletion mutant L50-81 (domain or fragment)”, the stoichiometry N in experiment [3] was 2.
“beta 1-LAP deletion mutant L50-85 (domain or fragment)” gave a stoichiometry N in experiment [4] of 2.
As to “beta 1-LAP deletion mutant L40-50 (domain or fragment)”, the stoichiometry N in experiment [5] was determined as 2. The substance further had a cross-linking (% of wild-type) (% of wild-type) in experiment [2] of 10.
The substance “beta 1-latency-associated peptide (pro domain of TGFbeta1 expressed independently), wild type (domain or fragment)” had a cross-linking (% of wild-type) (% of wild-type) in experiment [2] of 100.
“mature TGFbeta1 secreted by COS-1 cells transfected with wild-type pre-pro-TGFbeta1 (ligand)” gave a stoichiometry N in experiment [6] of 2.

In general, stoichiometry N refers to the number of molecules, sites or subunits per partner or assembly.
